Results taken from US20160199440A1 (UNIVERSITY OF ROCHESTER, published 2016).

T1: Claudin 1 (endogenous, in 16HBE human bronchial epithelial cells) (human, UniProt O95832 1-211)
T1 sequence (looked up): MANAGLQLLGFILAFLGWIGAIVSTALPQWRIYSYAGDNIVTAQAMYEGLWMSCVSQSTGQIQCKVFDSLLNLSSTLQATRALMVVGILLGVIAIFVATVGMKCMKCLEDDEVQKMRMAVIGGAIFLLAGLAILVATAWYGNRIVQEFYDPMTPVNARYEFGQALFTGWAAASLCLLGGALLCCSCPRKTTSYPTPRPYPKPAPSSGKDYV


Biological target: T1, Claudin 1 (endogenous, in 16HBE human …)
Test: cell-based or functional assay

enhancement of penetration of labeled Synagis antibody (168 kD), 2.4 µM peptide [fold] | enhancement of penetration of labeled Synagis antibody (168 kD), 12 µM peptide [fold] | increase in FD-40 permeability, 2.4 µM peptide [fold] | increase in FD-40 permeability, 12 µM peptide [fold] | increase in fluorescein permeability, 2.4 µM peptide [fold] | increase in fluorescein permeability, 12 µM peptide [fold] | increase in FITC-dextran 40 kDa (FD-40) permeability, 2.4 µM peptide [fold] | increase in fluorescein (0.4 kDa) permeability, 2.4 µM peptide [fold] | Binder
4.9 | 5.6 | 25.3 | 30.5 | 5.6 | 16.4 | – | – | H-SILTGVSTLDQSLKQLSNFSQAVSTQSSR-NH2 [Peptide 2a, scrambled peptide]
2.5 | 3.2 | – | 16.8 | – | 6.7 | 11.2 | 4.1 | H-SSVSQSTGQIQSKVFDSLLNLSSTLQATR-NH2 [Peptide 1a, hCldn1 (53-81, C54,64S)]
